System: IL10 signaling pathway (STAT3)
Test: SEAP colorimetric assay in reporter cells with RISE10 constructs
Assay type: cell-based
Protocol: FIG. 8 provides an example of CISC signaling through the IL10 signaling pathway. Cells were treated with IL10 or rapamycin at varying doses.
The signaling activity of RISE10 constructs (FIGS. 2 and 7) was examined. InvivoGen HEK-BLUE™ IL2 reporter cells, in which production of STAT3 (from IL10 signaling) leads to release of secreted embryonic alkaline phosphatase (SEAP), were used. The reporter cells were transfected with different levels of IL10, rapamycin and the RISE10 construct with a synthetic linker, (G4S)×3 (“CISC10 RaL”), or rapamycin and the RISE10 construct with IL10 hinge domains (“CISC10 RhL”). A colorimetric enzyme assay was performed to quantify the secreted embryonic alkaline phosphatase, and the results are shown in FIG. 8.

B1: IL10: interleukin IL10 used as stimulus for comparison in the reporter assay (protein, UniProt P22301 19-178, looked up)
Interleukin-10: SPGQGTQSENSCTHFPGNLPNMLRDLRDAFSRVKTFFQMKDQLDNLLLKESLLEDFKGYLGCQALSEMIQFYLEEVMPQAENQDPDIKAHVNSLGENLKTLRLRLRRCHRFLPCENKSKAVEQVKNAFNKLQEKGIYKAMSEFDIFINYIEAYMTMKIRN
In the case of B1, the “IL10 dose giving similar peak plateau (SEAP)” value is reported as 10 ng/mL.
